Assay results as given in patent publication US20220406376A1 (MacroGenics, published 2022).

T1: extracellular portion of cynomolgus monkey CD137 fused to a histidine-containing peptide (cynomolgus monkey, UniProt A9YYE7 24-186)
T1 construct: extracellular domain; also called cynoCD137
T1 sequence: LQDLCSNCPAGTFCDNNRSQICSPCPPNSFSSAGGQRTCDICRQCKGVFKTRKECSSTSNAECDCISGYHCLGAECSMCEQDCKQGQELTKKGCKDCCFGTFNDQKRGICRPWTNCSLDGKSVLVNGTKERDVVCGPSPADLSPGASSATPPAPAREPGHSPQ

B1: DART-G (bispecific antibody, human IgG1, kappa, L234A L235A)
heavy: QVQLVQSGAEVKKPGASVKVSCKASGYTFTNYGMNWVRQAPGQGLEWMGWINTNIGEPTYTEEFKGRVTMTRDTSISTAYMELSRLRSDDTAVYYCARDDGYGNRVSYWGQGTLVTVSSASTKGPSVFPLAPSSKSTSGGTAALGCLVKDYFPEPVTVSWNSGALTSGVHTFPAVLQSSGLYSLSSVVTVPSSSLGTQTYICNVNHKPSNTKVDKRVEPKSCDKTHTCPPCPAPEAAGGPSVFLFPPKPKDTLMISRTPEVTCVVVDVSHEDPEVKFNWYVDGVEVHNAKTKPREEQYNSTYRVVSVLTVLHQDWLNGKEYKCKVSNKALPAPIEKTISKAKGQPREPQVYTLPPSREEMTKNQVSLSCAVKGFYPSDIAVEWESNGQPENNYKTTPPVLDSDGSFFLVSKLTVDKSRWQQGNVFSCSVMHEALHNRYTQKSLSLSPGK
light: DIQMTQSPSSLSASVGDRVTITCKASQDISNYLSWFQQKPGKAPKTLIYRANRLQSGVPSRFSGSGSGTDFTLTISSLQPEDFATYYCLQHDEFPWTFGQGTKLEIKRTVAAPSVFIFPPSDEQLKSGTASVVCLLNNFYPREAKVQWKVDNALQSGNSQESVTEQDSKDSTYSLSSTLTLSKADYEKHKVYACEVTHQGLSSPVTKSFNRGEC
chain 1: QVQLVQSGAEVKKPGASVKVSCKASGYTFTNYGMNWVRQAPGQGLEWMGWINTNIGEPTYTEEFKGRVTMTRDTSISTAYMELSRLRSDDTAVYYCARDDGYGNRVSYWGQGTLVTVSSASTKGPSVFPLAPSSKSTSGGTAALGCLVKDYFPEPVTVSWNSGALTSGVHTFPAVLQSSGLYSLSSVVTVPSSSLGTQTYICNVNHKPSNTKVDKRVEPKSCDKTHTCPPCPAPEAAGGPSVFLFPPKPKDTLMISRTPEVTCVVVDVSHEDPEVKFNWYVDGVEVHNAKTKPREEQYNSTYRVVSVLTVLHQDWLNGKEYKCKVSNKALPAPIEKTISKAKGQPREPQVYTLPPSREEMTKNQVSLWCLVKGFYPSDIAVEWESNGQPENNYKTTPPVLDSDGSFFLYSKLTVDKSRWQQGNVFSCSVMHEALHNHYTQKSLSLSPGGGGSGGGSGGGDIQMTQSPSSLSASVGDRVTITCRPSQDISNYLNWYQQKPDKTVKLLIYYTSRLRSGVPSRFSGSGSGTDFTFTISSLQPEDIATYFCQQGDTLPYTFGQGTKLEIKGGGSGGGGQVQLVQSGAEVKKPGASVKVSCKASGYTFTSYWINWVKQAPGQGLEWIGNIYPSDSYTNYNQKFKDKATITADKSTSTAYMELSSLRSEDTAVYYCTRDYGSSYSFDYWGQGTTVTVSSGGCGGGEVAALEKEVAALEKEVAALEKEVAALEK
chain 2: DIQMTQSPSSLSASVGDRVTITCRPSQDISNYLNWYQQKPDKTVKLLIYYTSRLRSGVPSRFSGSGSGTDFTFTISSLQPEDIATYFCQQGDTLPYTFGQGTKLEIKGGGSGGGGQVQLVQSGAEVKKPGASVKVSCKASGYTFTSYWINWVKQAPGQGLEWIGNIYPSDSYTNYNQKFKDKATITADKSTSTAYMELSSLRSEDTAVYYCTRDYGSSYSFDYWGQGTTVTVSSGGCGGGKVAALKEKVAALKEKVAALKEKVAALKE
B2: DART-D (bispecific antibody, human IgG1, kappa, L234A L235A)
heavy: B1 heavy
light: B1 light
chain 1: QVQLVQSGAEVKKPGASVKVSCKASGYTFTNYGMNWVRQAPGQGLEWMGWINTNIGEPTYTEEFKGRVTMTRDTSISTAYMELSRLRSDDTAVYYCARDDGYGNRVSYWGQGTLVTVSSASTKGPSVFPLAPSSKSTSGGTAALGCLVKDYFPEPVTVSWNSGALTSGVHTFPAVLQSSGLYSLSSVVTVPSSSLGTQTYICNVNHKPSNTKVDKRVEPKSCDKTHTCPPCPAPEAAGGPSVFLFPPKPKDTLMISRTPEVTCVVVDVSHEDPEVKFNWYVDGVEVHNAKTKPREEQYNSTYRVVSVLTVLHQDWLNGKEYKCKVSNKALPAPIEKTISKAKGQPREPQVYTLPPSREEMTKNQVSLWCLVKGFYPSDIAVEWESNGQPENNYKTTPPVLDSDGSFFLYSKLTVDKSRWQQGNVFSCSVMHEALHNHYTQKSLSLSPGGGGSGGGSGGGDIQMTQTTSSLSASLGDRVTISCRPSQDISNYLNWYQQKPDGTVKLLIYYTSRLRSGVPSRFSGSGSGTDYSLTISNLEQEDIATYFCQQGDTLPYTFGGGTKLEIKGGGSGGGGQVQLQQPGAELVRPGASVKLSCKASGYTFTSYWINWVKQRPGQGLEWIGNIYPSDSYTNYNQKFKDKATLTVDKSSSTAYMQLSSPTSEDSAVYYCTRDYGSSYSFDYWGQGTTLTVSSGGCGGGEVAALEKEVAALEKEVAALEKEVAALEK
chain 2: DIQMTQTTSSLSASLGDRVTISCRPSQDISNYLNWYQQKPDGTVKLLIYYTSRLRSGVPSRFSGSGSGTDYSLTISNLEQEDIATYFCQQGDTLPYTFGGGTKLEIKGGGSGGGGQVQLQQPGAELVRPGASVKLSCKASGYTFTSYWINWVKQRPGQGLEWIGNIYPSDSYTNYNQKFKDKATLTVDKSSSTAYMQLSSPTSEDSAVYYCTRDYGSSYSFDYWGQGTTLTVSSGGCGGGKVAALKEKVAALKEKVAALKEKVAALKE

Tests used:
[1] = target: T2, CD137 on the surface of cells (activated human T cells; engineered CHO cells) (human, UniProt Q07011 24-255); experiment: flow cytometry on activated CD8+ T cells (donor D53781, CD8 FITC), anti-hFc APC MFI
T2 construct: whole, on cells; also called human CD137; cell surface expressed CD137

[2] = target: T2, CD137 on the surface of cells …; experiment: flow cytometry on activated pan T cells (donor D46433, CD8 PE), anti-hFc APC MFI
[3] = target: T2, CD137 on the surface of cells …; experiment: flow cytometry on CD137-expressing CHO cells (CHO/137), anti-hFc APC MFI
[4] = target: T3, HER2/neu on the surface of target cells (N87, JIMT-1, MCF-7, MDA-MB231) (UniProt P04626 23-1255, limits assumed); experiment: flow cytometry on MCF-7 cells, anti-hFc APC MFI
T3 construct: whole, on cells

[5] = target: T1, extracellular portion of cynomolgus …; experiment: SPR (BIACORE); molecule captured on anti-human Fc; cynoCD137 6.25-100 nM; 1:1 Langmuir
Method: (§1) The amino acid sequences of these clones were incorporated into the 5 chain diabody DART-G to yield optimized DART-G molecules (designated as DART-G1, DART-G2; DART-G3, and DART-G4). The binding affinity of DART-G2, DART-G3, and DART-G4 were evaluated via BIAcore (Table 11). For such evaluation, His-tagged soluble human CD137 (huCD137) or cynomolgus monkey CD137 (cynoCD137) (containing an extracellular portion of human or cynomolgus monkey CD137 fused to a histidine-containing peptide) was passed over a surface coated with immobilized antibody. Briefly, each test molecule was captured onto an F(ab)₂ goat-anti-human Fc-coated surface and then incubated in the presence of different concentrations (6.25-100 nM) of huCD137 or cynoCD137. The kinetics of binding were determined via BIACORE® analysis binding (normalized 1:1 Langmuir binding model).

[6] = target: T2, CD137 on the surface of cells …; experiment: flow cytometry on activated CD8+ T cells (CD8 FITC), anti-hFc APC MFI
[7] = target: T3, HER2/neu on the surface of target cells …; experiment: flow cytometry on JIMT-1 cells, anti-hFc APC MFI
Method: (§2) CD137×TA Binding Molecules, DART-B, DART-D, DART-G and the control molecules DART-3 and DART-6 were additionally evaluated for their ability to bind to HER2/neu expressed on N87 cells (FIG. 13A) and JIMT-1 cells (FIG. 13B). For such evaluation, 100 μL of HER2/neu expressing target cells (1.0×1⁰⁶ cells/mL) and 100 μL of serially diluted (5- or 10-fold dilutions) test article (bispecific diabody) were added to each well of microtiter assay plate(s), mixed and incubated at RT for 45 min. The cells were washed with FACS Buffer and secondary antibody (anti-human-Fc region-APC) was then added to each well; mixed and incubated at RT for 30 min. Cells were washed and resuspended in 100 μL FACS Buffer and analyzed by flow cytometry (BD LSR Fortessa or FACSCanto 11) for cell event collection. Data analysis were performed via FloJo v10.

[8] = target: T4, extracellular portion of human CD137 fused to a histidine-containing peptide (human, UniProt Q07011 24-186); experiment: SPR (BIACORE); molecule captured on anti-human Fc; huCD137 6.25-100 nM; 1:1 Langmuir
T4 construct: extracellular domain; also called huCD137; His-tagged soluble human CD137
Method: as §1

[9] = target: T3, HER2/neu on the surface of target cells …; experiment: flow cytometry on N87 cells, anti-hFc APC MFI
[10] = target: T3, HER2/neu on the surface of target cells …; experiment: flow cytometry on JIMT-1 cells, anti-hFc APC MFI; remark: listed apart in the source
[11] = target: T1, extracellular portion of cynomolgus …; experiment: SPR (BIACORE); molecule captured on anti-human Fc; cynoCD137 6.25-100 nM; column head ×10^-4 applied as printed
Method: as §1

[12] = target: T3, HER2/neu on the surface of target cells …; experiment: flow cytometry on N87 cells, anti-hFc APC MFI; remark: listed apart in the source
Method: as §2

[13] = target: T2, CD137 on the surface of cells …; experiment: flow cytometry on CD137-expressing CHO cells (CHO/137), anti-hFc APC MFI; remark: listed apart in the source
[14] = target: T3, HER2/neu on the surface of target cells …; experiment: flow cytometry on N87 gastric cancer cells, anti-hFc APC MFI
[15] = target: T2, CD137 on the surface of cells …; experiment: flow cytometry on activated pan T cells gated CD8, anti-hFc APC MFI
[16] = target: T3, HER2/neu on the surface of target cells …; experiment: flow cytometry on N87 gastric cancer cells, anti-hFc APC MFI; remark: listed apart in the source
[17] = target: T2, CD137 on the surface of cells …; experiment: flow cytometry on activated pan T cells gated CD8, anti-hFc APC MFI; remark: listed apart in the source

T2 sequence (Q07011 24-255, change not shown): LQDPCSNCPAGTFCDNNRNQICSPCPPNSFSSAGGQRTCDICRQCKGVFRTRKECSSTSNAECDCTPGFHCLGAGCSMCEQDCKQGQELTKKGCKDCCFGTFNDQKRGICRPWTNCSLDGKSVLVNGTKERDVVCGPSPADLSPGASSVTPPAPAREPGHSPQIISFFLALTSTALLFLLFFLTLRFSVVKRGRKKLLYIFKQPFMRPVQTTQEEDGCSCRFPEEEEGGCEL

Binder	EC50 (read off the curve) [1]	EC50 (read off the curve) [2]	EC50 (read off the curve) [3]	EC50 (read off the curve) [4]	Kd [5]	kon [5]	EC50 (read off the curve) [6]	EC50 (read off the curve) [7]	Kd [8]	koff [8]	kon [8]	EC50 (read off the curve) [9]	EC50 (read off the curve) [10]	koff [11]	EC50 (read off the curve) [12]	EC50 (read off the curve) [13]	EC50 (read off the curve) [14]	EC50 (read off the curve) [15]	EC50 (read off the curve) [16]	EC50 (read off the curve) [17]
B1	~0.03 µg/mL	~0.1 nM	~0.02 µg/mL	~0.09 nM	115 nM	390000 M⁻¹ s⁻¹	~0.03 µg/mL	~0.04 µg/mL	114 nM	0.042 s⁻¹	370000 M⁻¹ s⁻¹	~0.5 nM	~0.2 nM	0.045 s⁻¹	~0.1 µg/mL	~0.02 µg/mL				
B2					67 nM	460000 M⁻¹ s⁻¹	~0.02 µg/mL	~0.03 µg/mL	53 nM	0.025 s⁻¹	470000 M⁻¹ s⁻¹			0.031 s⁻¹	~0.07 µg/mL	~0.02 µg/mL	~0.5 nM	~0.2 nM	~0.5 nM	~0.2 nM
